Results: patent US20250388672A1 (Ablynx, published 2025)
Numbering of substitutions follows the chain as printed.

T1: human CD20 (human, UniProt P11836 1-297)
T1 sequence (looked up): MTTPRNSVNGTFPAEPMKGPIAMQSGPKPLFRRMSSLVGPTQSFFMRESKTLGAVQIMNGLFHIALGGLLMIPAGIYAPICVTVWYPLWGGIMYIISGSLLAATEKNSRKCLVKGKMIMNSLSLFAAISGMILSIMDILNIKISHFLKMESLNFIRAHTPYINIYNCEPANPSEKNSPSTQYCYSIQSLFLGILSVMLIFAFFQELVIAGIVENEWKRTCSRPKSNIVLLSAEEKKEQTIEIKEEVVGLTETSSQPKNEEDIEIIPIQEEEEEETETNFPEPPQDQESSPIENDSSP

B1: T017000062 (bispecific antibody)
chain: EVQLVESGGGLVQPGGSLRLSCTFSGGTFSSYTMGWFRQAPGKEREFVAEVRWGGVTTYSNSLKDRFSISEDSVKNAVYLQMNSLKPEDTAVYYCAAVRQMYMTVVPDYWGQGTLVTVSSGGGGSGGGGSGGGGSGGGGSGGGGSGGGGSGGGGSEVQLVESGGGPVQAGGSLRLSCAASGRTYRGYSMGWFRQAPGKEREFVAAIVWSGGNTYYEDSVKGRFTISRDNAKNTMYLQMTSLKPEDSATYYCAAKIRPYIFKIAGQYDYWGQGTLVTVSSGAADYKDHDGDYKDHDIDYKDDDDKGAAHHHHHH
notes: Bispecific Nanobody construct with tags, expressed in Pichia; also called 20CD019C07-35GS-T0170117G03-FLAG3-HIS6; CD20xCD3 (cluster A)
B2: T0170117G03 (VHH)
VHH: EVQLVESGGGPVQAGGSLRLSCAASGRTYRGYSMGWFRQAPGKEREFVAAIVWSGGNTYYEDSVKGRFTISRDNAKNTMYLQMTSLKPEDSATYYCAAKIRPYIFKIAGQYDYWGQGTQVTVSS
notes: Monovalent anti-CD3 Nanobody, expressed in E. coli TG1 as triple Flag, His6-tagged protein; also called T0170PMP117G03; cluster A representative; not shown: C-terminal triple FLAG and His6 tag
B3: T0170075G11 (VHH)
VHH: B2 VHH with G16D, A40V, S54T, G55D, N74I, A75T, Q82H
notes: also called T0170PMP075G11; cluster A; not shown: C-terminal triple FLAG and His6 tag
B4: T017000053 (bispecific antibody)
chain: EVQLVESGGGLVQPGGSLRLSCTFSGGTFSSYTMGWFRQAPGKEREFVAEVRWGGVTTYSNSLKDRFSISEDSVKNAVYLQMNSLKPEDTAVYYCAAVRQMYMTVVPDYWGQGTLVTVSSGGGGSGGGGSGGGGSGGGGSGGGGSGGGGSGGGGSEVQLVESGGGLVQPGGSLRLSCAASGDIYKSFDMGWYRQAPGKQRDLVAVIGSRGNNRGRTNYADSVKGRFTISRDGTGNTVYLLMNKLRPEDTAIYYCNTAPLVAGRPWGRGTLVTVSSGAADYKDHDGDYKDHDIDYKDDDDKGAAHHHHHH
notes: Bispecific Nanobody construct with tags, expressed in Pichia; also called 20CD019C07-35GS-T0170060E11-FLAG3-HIS6; CD20xCD3 (cluster B)
B5: 20CD019C07 (VHH)
VHH: EVQLVESGGGLVQPGGSLRLSCTFSGGTFSSYTMGWFRQAPGKEREFVAEVRWGGVTTYSNSLKDRFSISEDSVKNAVYLQMNSLKPEDTAVYYCAAVRQMYMTVVPDYWGQGTLVTVSS
notes: also called the anti-CD20 Nanobody; human CD20 targeting Nanobody
B6: T017000036 (bispecific antibody)
chain: EVQLVESGGGPVQAGGSLRLSCAASGRTYRGYSMGWFRQAPGKEREFVAAIVWSGGNTYYEDSVKGRFTISRDNAKNTMYLQMTSLKPEDSATYYCAAKIRPYIFKIAGQYDYWGQGTLVTVSSGGGGSGGGGSGGGGSGGGGSGGGGSGGGGSGGGGSEVQLVESGGGLVQPGGSLRLSCTFSGGTFSSYTMGWFRQAPGKEREFVAEVRWGGVTTYSNSLKDRFSISEDSVKNAVYLQMNSLKPEDTAVYYCAAVRQMYMTVVPDYWGQGTLVTVSSGAADYKDHDGDYKDHDIDYKDDDDKGAAHHHHHH
notes: Bispecific Nanobody construct with tags, expressed in Pichia; also called T0170117G03-35GS-20CD019C07-FLAG3-HIS6; CD3xCD20 (cluster A)

Assays:
[1] = target: T1, human CD20; assay: cell-based or functional assay
[2] = target: T1, human CD20; assay: cell-based or functional assay; remark: listed apart in the source
[3] = target: T2, human TCR/CD3 complex on purified primary human T cells (human); assay: flow cytometry on primary human T cells
T2 construct: Natural complex on T cells isolated from buffy coats of healthy donors; also called hu T cells; purified primary T cells

[4] = target: T1, human CD20; assay: flow cytometry on human CD20 positive Ramos cells
[5] = target: T1, human CD20; assay: cell-based or functional assay; remark: listed apart in the source
[6] = target: T1, human CD20; assay: cell-based or functional assay; remark: listed apart in the source
[7] = target: T1, human CD20; assay: cell-based or functional assay; remark: listed apart in the source
[8] = target: T2, human TCR/CD3 complex on purified …; assay: flow cytometry on purified primary human T cells
[9] = target: T3, human CD3 expressed on HEK293H cells (human, UniProt P20963 22-164); assay: flow cytometry on HEK293H cells expressing human CD3
T3 construct: also called HEK293H CD3; HEK293H human CD3
From the text: The parental HEK293H cell line was included as TCR/CD3 negative cell line.

[10] = target: T1, human CD20; assay: flow cytometry on Ramos cells, MCF (Mean PE)
[11] = target: T1, human CD20; assay: flow cytometry on Raji cells, MCF (Mean PE)

T2 sequence (delta, as listed by the source limits assumed, chain 1 of 4): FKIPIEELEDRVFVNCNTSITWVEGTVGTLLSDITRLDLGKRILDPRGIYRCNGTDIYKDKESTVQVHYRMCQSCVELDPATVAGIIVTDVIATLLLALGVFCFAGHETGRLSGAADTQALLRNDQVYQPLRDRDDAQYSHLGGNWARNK
T2 sequence (gamma, as listed by the source limits assumed, chain 2 of 4): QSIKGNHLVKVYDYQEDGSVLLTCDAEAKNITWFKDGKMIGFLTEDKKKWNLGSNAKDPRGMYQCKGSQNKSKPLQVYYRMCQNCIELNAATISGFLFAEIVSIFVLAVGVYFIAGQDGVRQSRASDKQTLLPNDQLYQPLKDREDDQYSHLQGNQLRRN
T2 sequence (epsilon, as listed by the source limits assumed, chain 3 of 4): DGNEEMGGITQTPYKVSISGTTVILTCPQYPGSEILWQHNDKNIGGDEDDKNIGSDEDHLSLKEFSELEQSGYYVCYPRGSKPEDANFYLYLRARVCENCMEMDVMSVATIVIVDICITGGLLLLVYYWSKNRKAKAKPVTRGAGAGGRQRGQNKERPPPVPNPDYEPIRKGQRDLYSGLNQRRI
T2 sequence (zeta, as listed by the source limits assumed, chain 4 of 4): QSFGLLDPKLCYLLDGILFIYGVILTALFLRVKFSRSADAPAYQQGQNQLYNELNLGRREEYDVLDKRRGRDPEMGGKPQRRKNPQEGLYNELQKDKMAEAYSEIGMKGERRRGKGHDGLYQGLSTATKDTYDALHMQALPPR
T3 sequence (chain, as listed by the source limits assumed, chain 1 of 4): as the sequence (delta, as listed by the source limits assumed, chain 1 of 4) above
T3 sequence (chain, as listed by the source limits assumed, chain 2 of 4): as the sequence (gamma, as listed by the source limits assumed, chain 2 of 4) above
T3 sequence (chain, as listed by the source limits assumed, chain 3 of 4): as the sequence (epsilon, as listed by the source limits assumed, chain 3 of 4) above
T3 sequence (P20963 22-164 limits assumed, chain 4 of 4): as the sequence (zeta, as listed by the source limits assumed, chain 4 of 4) above

Binder	EC50 (M) of IFN-γ secretion by human T cells (ELISA, 72 h) in the xCELLigence based CHO-K1 human CD20 killing assay [1] [M]	Average IC50 (M), xCELLigence based human T cell mediated CHO-K1 CD20 killing assay, E:T 30:1, 44 h [2] [M]	EC50 [3] [nM]	EC50 [4] [nM]	EC50 (M) (title: IC50), T cell dependent B-cell (Ramos) killing assay [6]	% lysis (% dead cells at 500 nM Nanobody minus no Nanobody control), Ramos killing assay, E:T 10:1 [7] [%]	Average IC50 (M), flow cytometry based primary human T cell mediated Ramos killing assay, E:T 10:1 [7] [M]	other results
B1	6.2e-10	7.88e-10	89	1.9	6.4e-10	22	3.9e-09	IC50 (M), flow cytometry based T cell mediated Ramos killing assay, E:T 1 [5]: 2.5e-08 M; IC50 (M), flow cytometry based T cell mediated Ramos killing assay, E:T 2 [5]: 7.1e-09 M; IC50 (M), flow cytometry based T cell mediated Ramos killing assay, E:T 5 [5]: 8.7e-09 M; IC50 (M), flow cytometry based T cell mediated Ramos killing assay, E:T 10 [5]: 7.3e-09 M
B2	–	–	–	–	–	–	–	EC50 [8]: 22 nM
B3	–	–	–	–	–	–	–	EC50 [9]: 84 nM
B4	9.1e-10	2.81e-10	–	1.8	1.8e-09	22	7e-09	–
B5	–	–	–	–	–	–	–	EC50 (read off the curve) [10]: ~9 nM; EC50 (read off the curve) [11]: ~20 nM
B6	–	1.04e-09	35	21	–	26	5.5e-09	–
